Assay results published in patent CN114028561A.

Biological target: 天然TSLP
Assay: cell-based or functional assay

Tezepelumab (antibody) was tested, and the IC50 of inhibition of natural TSLP-induced STAT5 phosphorylation in SW756-STAT5-Luciferase reporter cells was 1.45 ng/mL.
